3 substances from US20140128319A1 can be followed below.

The target of experiment [1] is Type 1 IGF receptor (IGF-1R) (human) (UniProt P08069). Briefly: competitive displacement of 125I-labeled IGF-I; IGF-1R (FIG. 9B).
The target is the same in experiment [2]. Briefly: competitive displacement of 125I-Tyr31-human IGF-I; human IGF-1R, Experiment 1.
Experiment [3] has the same target. The experiment can be described thus: competitive displacement of 125I-Tyr31-human IGF-I; human IGF-1R, Experiment 2.

Chain of Type 1 IGF receptor (IGF-1R) (human) (P08069 31-1367 limits assumed): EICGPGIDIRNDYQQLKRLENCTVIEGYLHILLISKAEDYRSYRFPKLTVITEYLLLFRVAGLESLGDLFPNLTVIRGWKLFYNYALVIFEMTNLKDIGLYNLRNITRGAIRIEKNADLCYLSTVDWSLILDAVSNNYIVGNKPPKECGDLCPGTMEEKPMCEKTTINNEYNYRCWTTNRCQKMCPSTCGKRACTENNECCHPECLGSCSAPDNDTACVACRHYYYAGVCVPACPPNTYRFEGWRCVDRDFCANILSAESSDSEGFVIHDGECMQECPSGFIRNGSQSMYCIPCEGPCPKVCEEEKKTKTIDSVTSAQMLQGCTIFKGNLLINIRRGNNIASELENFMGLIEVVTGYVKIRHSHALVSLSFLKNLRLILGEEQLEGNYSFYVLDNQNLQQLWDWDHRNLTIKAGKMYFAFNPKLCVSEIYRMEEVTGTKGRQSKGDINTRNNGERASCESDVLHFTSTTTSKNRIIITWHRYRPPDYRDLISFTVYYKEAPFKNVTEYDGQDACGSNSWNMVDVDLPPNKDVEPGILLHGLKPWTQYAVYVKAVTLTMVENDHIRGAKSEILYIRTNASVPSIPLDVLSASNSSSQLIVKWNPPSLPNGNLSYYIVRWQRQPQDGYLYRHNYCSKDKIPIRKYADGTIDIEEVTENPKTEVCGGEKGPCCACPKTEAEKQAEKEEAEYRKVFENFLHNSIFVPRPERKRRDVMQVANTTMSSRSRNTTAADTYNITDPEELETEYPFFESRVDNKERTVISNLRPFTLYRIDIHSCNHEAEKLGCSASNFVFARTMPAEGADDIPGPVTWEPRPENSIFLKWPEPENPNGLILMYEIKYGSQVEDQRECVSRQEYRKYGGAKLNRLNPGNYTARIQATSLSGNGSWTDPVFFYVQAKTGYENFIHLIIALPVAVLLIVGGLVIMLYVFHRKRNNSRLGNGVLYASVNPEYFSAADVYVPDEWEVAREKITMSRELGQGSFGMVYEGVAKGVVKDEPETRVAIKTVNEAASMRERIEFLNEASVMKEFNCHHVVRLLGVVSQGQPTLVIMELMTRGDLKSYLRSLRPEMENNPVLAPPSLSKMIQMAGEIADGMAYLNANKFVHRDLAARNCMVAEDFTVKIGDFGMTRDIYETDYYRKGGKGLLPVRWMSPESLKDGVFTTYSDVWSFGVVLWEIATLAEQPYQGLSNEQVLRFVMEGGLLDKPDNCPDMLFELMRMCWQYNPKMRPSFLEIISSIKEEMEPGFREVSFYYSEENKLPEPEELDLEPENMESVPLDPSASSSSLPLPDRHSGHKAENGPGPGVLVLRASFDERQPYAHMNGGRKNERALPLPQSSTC

“4Cl-Phe^B24-KP-insulin (ligand; para-monochloro-phenylalanine (4Cl-Phe) at B24; other documents disagree on this pair)”: the fold reduction of cross-binding relative to KP-insulin or wild-type insulin in experiment [1] came to 3 fold. For “KP-insulin (ligand; other documents disagree on this pair)”, the figures for the Kd in experiment [2] and in experiment [3] were 12.6 nM and 15.3 nM, respectively. As to “penta-fluoro-Phe^B24-KP-insulin (ligand; penta-fluoro-phenylalanine (F5-Phe) at B24; other documents disagree on this pair)”, the Kd in experiment [2] was 522 nM.
